This note sets out measurements from the nanobody polyreactivity screen of Harvey et al. (2022).

The data set can be described thus: yeast display, Sf9 membrane polyspecificity reagent, FACS + sequencing; frameworks hold sequencing errors. In short, it runs like this: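 Sorting gates, low and high (top ~1%), were placed on anti-HA fluorescence to track expression and on streptavidin fluorescence to track reagent binding. A clone's polyreactivity label is taken from the gate it came out of. The reagent was 10% biotinylated, detergent-solubilized Sf9 membrane, applied for 1 hour at 4 °C to galactose-induced yeast display cells.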
Turning to “QVQLVESGGGLVQAGGSLRLSCAASGRIFYDYTMGWYRQEPGKERELVAAINSGGGSTYYADSVKGRFTISRDNAKNTVYLQMNSLKPEVSAVYYCNADGQWNIWEYDYWGQGTQVTVSS”, the “polyreactivity (PSR sort gate)” value was “high polyreactivity”.

For “QVQLVESGGGLVQAGGSLRLSCAASGRIFYEYAMGWYRQAPGKERELVAISTSGGNTYYADSVKGRFTISRDNAKNTVYLQMNSLKPEVTAVYYCAARLQYYPYYYWGQGTQVTVSS”, the “polyreactivity (PSR sort gate)” value was “high polyreactivity”.

As to “QVQLVESGGGLVQAGGSLRLSCAASGRIFYFNAMGWYRQAPGKEWELVAVINSSGSTDYADSVKGRFTISRDNAKNTVYLQMNSLKPEDTAVYYCAAEVTPSGYGYWGQGTQVTVSS”, the “polyreactivity (PSR sort gate)” value is on record as “low polyreactivity”.

Take “QVQLVESGGGLVQAGGSLRLSCAASGRIFYFNAMGWYRQAPGQERELVADISSGGRTNYADSVKGRFTISRDNAKNTVYLQMNSLKPEDTAVYYCNAEPYTSSGGYRGYDFDSWGQGTQVTVSS”: the “polyreactivity (PSR sort gate)” value is “low polyreactivity”.

As to “QVQLVESGGGLVQAGGSLRLSCAASGRIFYFNSMGWYRQAPGKEREFVAAISGSGGDTYYADSVKGRFTISRDIAKNTVYLQMNSLKPEDTAVYYCAAEVYTWGQGTQVTVSS”, the “polyreactivity (PSR sort gate)” value is given as “low polyreactivity”.

For “QVQLVESGGGLVQAGGSLRLSCAASGRIFYFNVMGWYRQAPGKVRELVAAIRWSVGTTYYADSVKGRFTISRDNAKNTVYLQMNSLKPEDTAVYYCAARRSFPLGTARMYYWGQGTQVTVSS”, the “polyreactivity (PSR sort gate)” value is on record as “high polyreactivity”.

In the case of “QVQLVESGGGLVQAGGSLRLSCAASGRIFYFYALGWYRQAPGKERELVAAIDSGGSTYYADSVKGRFTISRDNAKNTVYLQMNSLKPEDTAVYYCNADGFYSWLYDYWGQGTQVTVSS”, the “polyreactivity (PSR sort gate)” value is “low polyreactivity”.

“QVQLVESGGGLVQAGGSLRLSCAASGRIFYFYAMGGYRQAPGKERELVAAISRRGGTTNYADSVKGRFTISRDNAKNTVYLQMNSLKPEDTAVYYCAADYQSVGGAEYDYWGQGTQVTVSS”: the “polyreactivity (PSR sort gate)” value is “high polyreactivity”.

With “QVQLVESGGGLVQAGGSLRLSCAASGRIFYFYAMGLYTQAPGKERELVAVISYGGDRTSYADSVKGRFTISRDNAKNTVYLQMNSLKPEDSAVYYCAARPFYRGYYYWGQGTQVTVSS”, the “polyreactivity (PSR sort gate)” value is on record as “high polyreactivity”.

In the case of “QVQLVESGGGLVQAGGSLRLSCAASGRIFYFYAMGWSRQAPGKERELVAAITGSAGGTYYADSVKGRFTISRDTAKNTVYLQMNSLKPEDTAVYYCAAKYYGNKRDLYYWGQGTQVTVSS”, the “polyreactivity (PSR sort gate)” value is “low polyreactivity”.

Turning to “QVQLVESGGGLVQAGGSLRLSCAASGRIFYFYAMGWYRQAPGKERELVAAISTSGGSTYYADSVKGRFTISRDNAKNTVYLQMNSLKPEDTAVYYCAARFRYYGSEYDYWGQGTQVTVAS”, the “polyreactivity (PSR sort gate)” value was “low polyreactivity”.

Consider “QVQLVESGGGLVQAGGSLRLSCAASGRIFYFYAMGWYRQAPGKERELVASISSGGITNYADSVKGRFTISRDNAKNTVYLQMNSLKPEDTAVYYCAADYGYYSRLYYWGQGTQVTVSS”, for which the “polyreactivity (PSR sort gate)” value is given as “low polyreactivity”.

For “QVQLVESGGGLVQAGGSLRLSCAASGRIFYFYVMGWYRQAPGKEREFVAAISQSGGSTYYADSVKGRFTISRDNAKNTVYLQMNSLKPEDTAVYYCAADLKAWGRYYYWGQGTQVTVSS”, the “polyreactivity (PSR sort gate)” value is “low polyreactivity”.

On to “QVQLVESGGGLVQAGGSLRLSCAASGRIFYGNAMGWYRQAPGKERELVAAIRRSGGSTYYAESVKGRVTISRDNAKNTVYLQMNSLKPEDTAVYYRNADAFNKISYVWYDYWGQGPQVTVSS”, for which the “polyreactivity (PSR sort gate)” value is “low polyreactivity”.

Consider “QVQLVESGGGLVQAGGSLRLSCAASGRIFYGNAMGWYRQAPGKERELVAAISSGTSTNYADSVKGRFTISRDNAKNTVYLEMNRLKPEDTAVYDCAAGSYSRYLYSLYFDFDYWGQGTQVTVSS”, for which the “polyreactivity (PSR sort gate)” value is on record as “low polyreactivity”.

As to “QVQLVESGGGLVQAGGSLRLSCAASGRIFYGYAMGWYRQAPGKERDLVAGISYRGARTYYADSVKGRFTISRDNAKNTVYLQMTSLKPEDTAVYYCNAVPYYPFAFGALDYWGQGTQVTVSS”, the “polyreactivity (PSR sort gate)” value is reported as “high polyreactivity”.

For the sequence “QVQLVESGGGLVQAGGSLRLSCAASGRIFYGYAMGWYRQAPGKERELVAAIRTSGGSTYYADSVKGRFTISRDNAKNTVYLQMNSLKPEDTAVYYCNAGIVPRNRYYTPYNYWGQGTQVTVSS”, the “polyreactivity (PSR sort gate)” value is “low polyreactivity”.

Turning to “QVQLVESGGGLVQAGGSLRLSCAASGRIFYGYAMGWYRQAPGKERELVAAITYSGGITYYADSVKGRFTISRDNAKNTVYLQMNSLKPEDTAVYYCATSKSSVTGPDLDYWGQGTQVTVSS”, the “polyreactivity (PSR sort gate)” value was “high polyreactivity”.

As for “QVQLVESGGGLVQAGGSLRLSCAASGRIFYGYSMGWSRQATGKEWELVAAISSSGGSTYYADSVKGRFTISRDNAKNTVSLQRNSVKPEDTAVYYCNAQRYRPGYWYDYWGQGTQVTVSS”, the “polyreactivity (PSR sort gate)” value is “high polyreactivity”.

As to “QVQLVESGGGLVQAGGSLRLSCAASGRIFYGYTMGWYRQAPGKERELVAAISWSGGSTSYADSVKGRFTISRDNAKNTVYLQMNSLKPEDTAVYYCDVRYPGYRLYWGYTYDYWGQGTQVTVSS”, the “polyreactivity (PSR sort gate)” value was “high polyreactivity”.

As to “QVQLVESGGGLVQAGGSLRLSCAASGRIFYHNVMGWYRQAPGKERELVAGIRSRGGSTSYADSVKGRFTISRDNAKNTVYLQMNSLKPEDTAVYYCATDTTLWYVLYDYWGQGTQVTVSS”, the “polyreactivity (PSR sort gate)” value was “low polyreactivity”.

Take “QVQLVESGGGLVQAGGSLRLSCAASGRIFYINAMGWYRQAPGKERELVAAITEGGVSTYYADSVKGRFTISRDNAMNTVYLQMNSLKPEDTAVYYCNTTGGTDGIVIYEYWGQGTQVTVSS”: the “polyreactivity (PSR sort gate)” value is on record as “low polyreactivity”.

With “QVQLVESGGGLVQAGGSLRLSCAASGRIFYINAMGWYRQAPGKERELVAAITGGDGSTTYADSVKGRFTISRDNAKNTVYLQMNSLKPEDTAVYYCNAVTARKYAESQFDHWGQGTQVTVSS”, the “polyreactivity (PSR sort gate)” value is on record as “low polyreactivity”.

For “QVQLVESGGGLVQAGGSLRLSCAASGRIFYIYAMGWSRQAPGKERELVASITSSGTSTYADSVKGRFTISRDNAKNTVYLQMNSLKPEDTAVYYCNARGYPKSWRYSRGYEYWGQGTQVTVSS”, the “polyreactivity (PSR sort gate)” value is recorded as “low polyreactivity”.

Turning to “QVQLVESGGGLVQAGGSLRLSCAASGRIFYKYAMGWYRPAPGKERELVASITRSGTSTDYADSVKGRFTISRDNAKNTVYLQMNSLKPEDTADYYCAKRFFSLNGYGYDYWGLGTQVTVSS”, the “polyreactivity (PSR sort gate)” value is given as “high polyreactivity”.

As for “QVQLVESGGGLVQAGGSLRLSCAASGRIFYKYAMGWYRQAPGKERELVAAISYSGGSTYYADSMKGRFTLSRDNAKNTVYLQMNSLTPEDTAVYYCATRRREAGIEYDYWGQGTQVTVSS”, the “polyreactivity (PSR sort gate)” value was “high polyreactivity”.

As to “QVQLVESGGGLVQAGGSLRLSCAASGRIFYLKAMGWYRQAPGTERELVAAINTSGDSTYYADSVKGRFTISRDNAKNTVDLQMNSLKPEDTAVSYCAAYVIGPDQFIYDYWGQGTQVTVSS”, the “polyreactivity (PSR sort gate)” value is given as “low polyreactivity”.

Consider “QVQLVESGGGLVQAGGSLRLSCAASGRIFYLNVMGWYRQAPGKERELVAAITRRDVTTYADSVKGRFTISRDNAKNTVYLQMNSLKPEDTAVYYCNAVYYNWIGFDYWGQGTQVSVSS”, for which the “polyreactivity (PSR sort gate)” value is “low polyreactivity”.

In the case of “QVQLVESGGGLVQAGGSLRLSCAASGRIFYLYAMGWYRQAPGKERELVAAISRSGGSTYYADSVKGRFTISRDNAKNTVYLQMNSLKPEDTAVYYCNTVWYFSSRTRLHDYWGQGTQVTVSS”, the “polyreactivity (PSR sort gate)” value is given as “high polyreactivity”.

Take “QVQLVESGGGLVQAGGSLRLSCAASGRIFYLYVMGWYRQAPGKERELVAAISIGSTTNYADSVKGRFTISRDNAKNTVYLQMNSLKPEDTAVYYCNARDGPPFYDYWGQRTQVTVSS”: the “polyreactivity (PSR sort gate)” value is reported as “low polyreactivity”.

As to “QVQLVESGGGLVQAGGSLRLSCAASGRIFYMNAMGWYRQAPGKERELVAGITNSTTGTYYADSVKGRFTISRDNAKNTVYLQMNSLKPEDTAVYYCNTDVAYEEPVETYDYWGQGTQVTVSS”, the “polyreactivity (PSR sort gate)” value is recorded as “low polyreactivity”.

Turning to “QVQLVESGGGLVQAGGSLRLSCAASGRIFYNAMGWYRQAPGKERELVAAITSNGGSTYYADSVKGRFTISRDNAKNTVYLQMNSLKPEDTAVYYCNAAIRYTASATHAFDYWGQGTQVTVSS”, the “polyreactivity (PSR sort gate)” value was “low polyreactivity”.

Regarding “QVQLVESGGGLVQAGGSLRLSCAASGRIFYNYAMGWYRQAPGKERELVAAISGSGGSTYYADSVKGRFTISRDNAKNSVYLQMNSLKPEDTAVYYCSTSGPQYYSRNFDYWGQGTQVTVSS”, the “polyreactivity (PSR sort gate)” value was “low polyreactivity”.

As to “QVQLVESGGGLVQAGGSLRLSCAASGRIFYNYAMGWYRQAPGKERELVAAITGGASTYADSVKGRFTISRDNAKNTVYLQMNRLKPEDTAVYYCAVDYYTYSLASGRTRMDYWGQGTQVTVSS”, the “polyreactivity (PSR sort gate)” value was “high polyreactivity”.

On to “QVQLVESGGGLVQAGGSLRLSCAASGRIFYNYAMGWYRQAPGKERELVAAITRRAGRTYYADSVKGRFTISRDNAKNTVYLQMNSLKPEDTAVFYCAKDEPGSSRVLYDYWGQVTQVTVSS”, for which the “polyreactivity (PSR sort gate)” value is on record as “low polyreactivity”.

In the case of “QVQLVESGGGLVQAGGSLRLSCAASGRIFYNYDMGWYRQAPGKERELVAAITSGGNTYADSVKGRFTISRDNAKNTVYLQMNSLKPEDTAVYYCNARDKFYVPSQYAYDYWGQGTQVTVSS”, the “polyreactivity (PSR sort gate)” value is “low polyreactivity”.

Take “QVQLVESGGGLVQAGGSLRLSCAASGRIFYNYGLGWYRQAPGKERELVARITTGGRTNYADSVKGRFTMSRDNAKNTVYLQMNSLKPEDTAVYYCNADGYHSRWYYYNYDYWGQGTQVTVSS”: the “polyreactivity (PSR sort gate)” value is “low polyreactivity”.

Take “QVQLVESGGGLVQAGGSLRLSCAASGRIFYNYSMGWYRQAPGKEREVVAAISGSGGSTYYADSVKGRFTISRDNAKNTVYLQMNSLKPEDTAVYYGSTSGGQYYSRNFEYWGQGTQVTVSS”: the “polyreactivity (PSR sort gate)” value is recorded as “low polyreactivity”.

In the case of “QVQLVESGGGLVQAGGSLRLSCAASGRIFYNYVMGWYRQAPGKERELVAAISDSGGSTYYADSVKGRFTISRDNAKNTVYLQMNSLKPEDTAVYYCNKVRPRKFWDYYYWGQGTQVTVSS”, the “polyreactivity (PSR sort gate)” value is “high polyreactivity”.

For the sequence “QVQLVESGGGLVQAGGSLRLSCAASGRIFYPNAMGWYRQAPGKERELVAAISSGGRTNYADSVKGRFTISRDNAKNTVYLQMNSLKPEDNAVYYCAARDRSQYTSTYAFGGGYWGHGTQVTVSS”, the “polyreactivity (PSR sort gate)” value is given as “low polyreactivity”.

On to “QVQLVESGGGLVQAGGSLRLSCAASGRIFYPNGMGWYRQAPGKERELVAAITGSGGSTYYADSVKGRFTISRDNAKNTVYLQMNSLIPEDTAVYYCAATWRYYLYPLGPHEFDYWGQGTQVTVSS”, for which the “polyreactivity (PSR sort gate)” value is reported as “low polyreactivity”.
